Entries after “also recorded” stand apart in the source; their conditions may differ.
What was measured:
[1] = test system: FRα positive cancerous cell lines; test: In vitro cytotoxicity assay (MTT) on FRα+ cancerous cell lines; format: cell-based, Human; settings: 144 hours incubation, several FRα positive cell lines (FIG. 3)
Description: In vitro cytotoxicity of compound exatecan mesylate was assessed on several FRα positive cancerous cell lines. Cells were plated in 96-well plates at an appropriate density depending on the cell line (between 1000 and 10000 cells/well in 100 μL of appropriate culture media) and incubated at 37° C. for 24 hours. Serial dilutions of the tested compound previously dissolved in culture media (50 μL) were added, and incubation was carried at 37° C. out for 144 hours. MTT (5 mg/mL, 20 μL, Sigma-Aldrich) was added into the wells, and incubation was continued for 1 to 2 hours at 37° C. Culture media was then carefully removed, and well content was homogeneously dissolved with acidified isopropanol. Absorbance values were measured on a Multiskan™ Sky microplate reader (Thermo Scientific) using a wavelength of 570 nm (with a reference wavelength of 690 nm). The IC50 concentration values compared to untreated control cells were determined using inhibition dose response curve fitting (GraphPad Prism 9).

[2] = biological target: T1, recombinant human FRα (Homo sapiens, UniProt P15328); test: Recombinant FRα-binding affinity by ELISA (human); settings: FIG. 4A/4B
T1 construct: purchased Sino Biological 11241-H08H
T1 sequence (P15328 25-234): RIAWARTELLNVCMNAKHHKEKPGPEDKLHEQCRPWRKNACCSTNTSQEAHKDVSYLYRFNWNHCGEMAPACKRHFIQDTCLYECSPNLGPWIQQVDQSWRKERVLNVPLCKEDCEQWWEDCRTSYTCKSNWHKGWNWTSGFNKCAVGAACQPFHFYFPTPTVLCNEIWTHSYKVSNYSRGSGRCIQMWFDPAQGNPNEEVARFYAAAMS
Description: Sandwich ELISA assays are performed using 96-well high-binding ELISA plates (Corning Inc., New York, NY, USA, Cat #3590). Plates are coated using 100 µL/well of recombinant human FRα protein (Sino Biological cat #11241-H08H) in PBS (pH 7.4) at 2 μg/mL and incubated overnight at 4° C. After 2 washes with PBS-T (PBS+0.05% Tween-20), the plates are blocked with 200 μL/well of incubation buffer (PBS-T+0.1% BSA) for 1 h at room temperature. The plates are washed 4 times with PBS-T, and 100 μL of a threefold dilution series of tested compound (antibody or antibody-drug conjugate) is added. Then, the plates are incubated for 2 h at room temperature in the dark. After 5 washes with PBS-T, plates are incubated 1 h at room temperature with 100 μL/well of a goat anti-human IgG (H+L) HRP conjugated antibody (Jackson Immunoresearch cat #109-035-088), previously diluted 1:250000 in incubation buffer. After 5 washes with PBS-T, TMB substrate solution (Thermo-Fisher cat #N301) is added. Peroxidase activity is stopped with 0.18M H2SO4 and absorbance is read at 450 nm (reference wavelength 650 nm) using a Thermo Scientific MultiSkan EX microplate reader. Sigmoidal fittings were performed using GraphPad Prism 9 software.
Sandwich ELISA assays were performed using 96-well high-binding ELISA plates (Corning Inc., New York, NY, USA, Cat #3590). Plates were coated using 100 μL/well of recombinant human FRα protein (Sino Biological cat #11241-H08H); recombinant cynomolgus FRα protein (Sino Biological cat #90950-C08H); recombinant rat FRα protein (Sino Biological cat #81073-R08H) or recombinant mouse FRα protein (Sino Biological cat #50573-M08H) in PBS (pH 7.4) at 2 μg/mL and incubated overnight at 4° C. After 2 washes with PBS-T (PBS+0.05% Tween-20), the plates were blocked with 200 μL/well of incubation buffer (PBS-T+0.1% BSA) for 1 h at room temperature. […] Peroxidase activity was stopped with 0.18M H2SO4 and absorbance was read at 450 nm (reference wavelength 650 nm) using a Thermo Scientific MultiSkan EX microplate reader. […]

[3] = biological target: T1, recombinant human FRα; test: Human FRα-binding affinity by SPR (Biacore); settings: Biacore T200, 25° C. (FIG. 5)
Description: Surface plasmon resonance (SPR) experiments are performed on a Biacore T200 apparatus, at 25° C. Tested antibody or ADC are captured at low density (300-500 RU) on a CM5 series S sensorchip, beforehand functionalized with a Human Antibody Capture kit (Cytiva cat #BR100839). A functionalized surface/flow cell treated similarly but omitting ligand is used as reference. To measure kinetics rates and affinities, recombinant human FRα (Sino Biological cat #11241-H08H) analyte sample is injected in duplicates at 5 concentrations (0.5, 1, 2, 4, 8 nM) in series using single cycle kinetics strategy and at constant […] flow rate of running buffer (HBS-EP+, Cytiva cat #BR100669) with contact pulses of 300 sec. The dissociation phase is measured by injection of running buffer for 900 sec. Between duplicates, surfaces/flow cells are regenerated with 3M MgCl2 to remove both analyte and ligand, and fresh ligand capture are done using identical conditions. The data analysis is performed using the Biacore Evaluation software after subtraction of reference surface and analyte zero-concentration signals. […]
Surface plasmon resonance (SPR) experiments were performed on a Biacore T200 apparatus, at 25° C. […] The dissociation phase was measured by injection of running buffer for 900 sec. […]

[4] = biological target: T2, extracellular human FRα expressed on cancerous cell lines (Homo sapiens, UniProt P15328); test: Cell-binding affinity by flow cytometry; settings: APC-labelled antibody or ADC, flow cytometry (FIG. 6)
T2 construct: endogenous in cells; host or cells: human cancer cell lines (ATCC/DSMZ/ECACC); BT-474 as FRα-negative control
T2 sequence (P15328 25-234): as above
Description: Antibody or ADC binding to extracellular human FRα expressed on cancerous cell lines is assessed by flow cytometry. Tested antibody or ADC is conjugated to APC fluorophore using LYNX Rapid APC Antibody Conjugation Kit according to the manufacturer's protocol (Bio-Rad, Cat #LNK032APC). Into 500000 cells (suspended in 100 μL of PBS in flow cytometry plastic tubes) is added 5 μL of a 10 μg/mL solution of tested APC-labelled antibody or ADC. Cells are incubated 20 min in the dark, are washed with PBS 3 times by centrifugation and are re-suspended in 200 μL of PBS for analysis. Flow cytometry is performed using a BD Fortessa flow cytometer controlled by BD FACSDiva software (BD Biosciences) and data are analyzed using FlowJo software (BD Bioscience).
Antibody or ADC binding to extracellular human FRα expressed on cancerous cell lines was assessed by flow cytometry. Tested antibody or ADC was conjugated to APC fluorophore using LYNX Rapid APC Antibody Conjugation Kit according to the manufacturer's protocol (Bio-Rad, Cat #LNK032APC). Into 500000 cells (suspended in 100 μL of PBS in flow cytometry plastic tubes) was added 5 μL of a 10 μg/mL solution of tested APC-labelled antibody or ADC. Cells were incubated 20 min in the dark, were washed with PBS 3 times by centrifugation and were re-suspended in 200 μL of PBS for analysis. Flow cytometry was performed using a BD Fortessa flow cytometer controlled by BD FACSDiva software (BD Biosciences) and data were analyzed using FlowJo software (BD Bioscience).

recombinant human FRα binding (ELISA), in words [2]	recombinant human FRα binding (SPR), in words [3]	human FRα cell binding [4]	Substance	IC50's in vitro potencies [1]
–	–	–	Exatecan Mesylate	sub-nM to low-nM
No loss of binding	No loss of binding	Comparable human FRα cell binding	farletuzumab-LALA: Fc-silent farletuzumab with L234A and L235A mutations, heavy chain SEQ ID NO:9, light chain SEQ ID NO:10	–
No significant loss of binding	–	binding affinity appeared identical	mirvetuximab: humanized anti-FRα antibody, heavy chain SEQ ID NO:16, light chain SEQ ID NO:17	–

Substance	recombinant human FRα binding (ELISA), in words [2]	recombinant human FRα binding (SPR), in words [3]	human FRα cell binding [4]	IC50's in vitro potencies [1]
farletuzumab: anti-FRα IgG1 antibody, heavy chain SEQ ID NO:11, light chain SEQ ID NO:10	No loss of binding	No loss of binding	Comparable human FRα cell binding; also recorded: binding affinity appeared identical	–

Reference: patent publication US20260232826A1, “ANTIBODY-DRUG CONJUGATES AND THEIR USES” (Mablink Bioscience, priority 2022, published 2026)
